Assay results: paper PMC3184955
Several values for one entry are separate records, joined by “and”; a condition that tells them apart may be missing. Equal values may be shown once. Read-outs that look alike come from different tables or passages of the source.

Experiments:
Experiment in all cases: AUC; sedimentation velocity, 40,000 rpm, 25°C, 2 mg/ml, 10 mM Tris, ~pH 7.0; c(s) model (SEDFIT)
[1] = molecular target: full-length recombinant mouse amelogenin (M180) (mouse)
[2] = molecular target: full-length recombinant mouse amelogenin (M180) (mouse); remark: listed apart in the source
[3] = molecular target: Amel-C (amelogenin C-terminal fragment, AA 86-180) (mouse)

| stoichiometry N [1] | stoichiometry N [2] | percent as larger aggregations [3] [%] | percent as tetramers [3] [%] | stoichiometry N [3] | Substance |
| --- | --- | --- | --- | --- | --- |
| 40 | 50 |  |  |  | full-length recombinant mouse amelogenin (M180) (natural protein) |
|  |  | 2 | 7.5 | 4 and 6 | Amel-C (amelogenin C-terminal fragment, AA 86-180) (domain or fragment) |
